Source: patent publication US20230242633A1 (KANAPH THERAPEUTICS, published 2023)

Columns and labels:
mouse C3b [1] = target: T1, mouse C3b (mouse, UniProt P01027 25-666; P01027 749-1663, limits assumed); assay: Biacore SPR, 1:1 fit; analyte series 0.78125-50 nM; the analyte is not printed on the sheet, mouse C3b by legend paragraph 26 and the C3b dilution series of paragraph 225
Experimental: (§1) A C3b stock solution was diluted to 50 nM using a 1×HBS-EP+ buffer. Human VEGF165 was diluted to 5 nM using a 1×HBS-EP+ buffer. The 50 nM and 5 nM solutions were then diluted to 0.78125 nM and 0.078125 nM. In the sample step, the diluted antigens were injected into the flow cells at a rate of 30 μL/min. Two 0 nM antigens (1×HBS-EP+ buffer) were used and removed from the reference signal. Binding for 180 seconds and separation for 400 seconds were performed. After the separation time, a stabilization step for 60 seconds was performed. In the regeneration step, 10 mM glycine (pH 1.5) was injected into the flow cells at a rate of 30 μL/min for 30 seconds, followed by a stabilization step for 60 seconds.
(§2) After subtracting the reference and 0 nM values from the sample values, binding kinetics were calculated using Biacore Insight Evaluation Software (Version 2.0.15.12933) and 1:1 binding model for curved fitting.

mouse C3b [2] = target: T1, mouse C3b; assay: ELISA, mouse C3b immobilised on the plate; no upper plateau in the range shown
Source text: (§3) Specifically, a human C3b protein was immobilized on a plate, and C1.01, C1.02, C1.03, and C1.04, and hIgG1 as a control were bound thereto. Next, an anti-human immunoglobulin G antibody and an anti-horseradish peroxidase (HRP) antibody were sequentially bound thereto. Moreover, a mouse C3b protein was immobilized on a plate, and C1.01m to C1.03m containing mouse CRIg were bound to mouse C3b.

mouse C3b [3] = target: T1, mouse C3b; assay: ELISA, mouse C3b immobilised on the plate; the printed value lies above the highest concentration shown (Log10 about 1.2), the curve reaches only OD450 about 1
Source text: as §3

human VEGF165 = target: T2, human VEGF165 (human, UniProt P15692-4 27-191); assay: Biacore SPR; the analyte is not printed on the sheet, human VEGF165 by legend paragraph 26
T2 construct: also called human VEGF165 protein
Experimental: In order to measure the binding force of the fusion protein, the physical properties of the prepared fusion protein were analyzed using Biacore 8K (GE Healthcare, 29129951) instrument.
as §1, §2

T1 sequence (P01027 25-666 limits assumed, chain 1 of 2): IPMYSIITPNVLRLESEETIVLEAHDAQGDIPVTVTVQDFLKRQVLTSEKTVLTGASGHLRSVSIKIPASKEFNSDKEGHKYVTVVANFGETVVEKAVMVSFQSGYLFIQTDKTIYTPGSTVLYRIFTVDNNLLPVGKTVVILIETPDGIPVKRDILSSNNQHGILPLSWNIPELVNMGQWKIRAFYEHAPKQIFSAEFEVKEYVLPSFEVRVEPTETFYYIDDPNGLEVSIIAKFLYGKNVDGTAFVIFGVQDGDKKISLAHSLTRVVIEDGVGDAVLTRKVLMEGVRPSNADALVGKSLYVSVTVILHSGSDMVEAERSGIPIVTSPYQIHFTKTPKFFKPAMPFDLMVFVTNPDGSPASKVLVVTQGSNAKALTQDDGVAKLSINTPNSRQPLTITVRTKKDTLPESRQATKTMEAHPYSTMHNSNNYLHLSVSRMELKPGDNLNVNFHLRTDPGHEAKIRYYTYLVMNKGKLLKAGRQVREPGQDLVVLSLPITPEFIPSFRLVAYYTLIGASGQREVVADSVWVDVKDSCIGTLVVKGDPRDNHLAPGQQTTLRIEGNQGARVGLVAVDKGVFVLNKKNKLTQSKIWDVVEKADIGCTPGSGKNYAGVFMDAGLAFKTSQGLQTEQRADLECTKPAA
T1 sequence (P01027 749-1663 limits assumed, chain 2 of 2): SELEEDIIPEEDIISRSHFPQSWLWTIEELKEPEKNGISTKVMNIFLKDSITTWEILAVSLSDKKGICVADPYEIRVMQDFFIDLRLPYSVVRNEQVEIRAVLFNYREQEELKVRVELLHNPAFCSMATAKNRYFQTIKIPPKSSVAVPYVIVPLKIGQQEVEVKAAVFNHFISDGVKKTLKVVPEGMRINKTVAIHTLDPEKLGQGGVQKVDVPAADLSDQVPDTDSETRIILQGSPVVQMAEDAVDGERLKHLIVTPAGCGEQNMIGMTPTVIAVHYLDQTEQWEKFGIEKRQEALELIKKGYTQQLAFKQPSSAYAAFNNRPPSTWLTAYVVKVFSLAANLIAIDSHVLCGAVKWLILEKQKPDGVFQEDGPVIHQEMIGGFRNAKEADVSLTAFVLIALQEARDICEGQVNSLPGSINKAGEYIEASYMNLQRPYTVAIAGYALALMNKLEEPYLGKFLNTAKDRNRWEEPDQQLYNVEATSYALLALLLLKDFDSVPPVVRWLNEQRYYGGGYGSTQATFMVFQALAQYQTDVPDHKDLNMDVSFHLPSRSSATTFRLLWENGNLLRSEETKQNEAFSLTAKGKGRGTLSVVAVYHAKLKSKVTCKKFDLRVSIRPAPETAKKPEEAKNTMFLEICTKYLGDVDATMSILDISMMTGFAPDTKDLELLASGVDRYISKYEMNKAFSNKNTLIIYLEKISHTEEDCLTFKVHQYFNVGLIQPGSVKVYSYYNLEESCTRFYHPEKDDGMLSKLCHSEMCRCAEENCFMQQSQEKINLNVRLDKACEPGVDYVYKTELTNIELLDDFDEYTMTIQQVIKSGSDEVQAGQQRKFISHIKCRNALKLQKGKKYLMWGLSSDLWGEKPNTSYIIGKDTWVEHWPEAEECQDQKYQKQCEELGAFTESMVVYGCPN
T2 sequence (P15692 other isoform, or with tags, fused parts or gaps): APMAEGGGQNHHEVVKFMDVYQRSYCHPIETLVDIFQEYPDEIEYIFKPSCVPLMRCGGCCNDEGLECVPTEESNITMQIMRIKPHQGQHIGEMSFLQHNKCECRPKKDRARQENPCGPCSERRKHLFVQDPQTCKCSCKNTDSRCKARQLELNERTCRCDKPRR

Kd (mouse C3b [1]) [pM]	EC50 (mouse C3b [2]) [mg/L]	EC50 (mouse C3b [3]) [mg/L]	binding result (human VEGF165)	Binder
0.987	0.821			C1.01m (mu CRIg-mu IgG2a Fc DANG) (Fc fusion) HPTLKTPESVTGTWKGDVKIQCIYDPLRGYRQVLVKWLVRHGSDSVTIFLRDSTGDHIQQAKYRGRLKVSHKVPGDVSLQINTLQMDDRNHYTCEVTWQTPDGNQVIRDKIIELRVRKYNPPRINTEAPTTLHSSLEATTIMSSTSDLTTNGTGKLEETIAGSGRNLPGGGGSEPRGPTIKPCPPCKCPAPNLLGGPSVFIFPPKIKDVLMISLSPIVTCVVVAVSEDDPDVQISWFVNNVEVHTAQTQTHREDYGSTLRVVSALPIQHQDWMSGKEFKCKVNNKDLPAPIERTISKPKGSVRAPQVYVLPPPEEEMTKKQVTLTCMVTDFMPEDIYVEWTNNGKTELNYKNTEPVLDSDGSYFMYSKLRVEKKNWVERNSYSCSVVHEGLHNHHTTKSFSRTPGK
		31.1		C1.03m (mu IgG2a Fc DANG-mu CRIg) (Fc fusion) EPRGPTIKPCPPCKCPAPNLLGGPSVFIFPPKIKDVLMISLSPIVTCVVVAVSEDDPDVQISWFVNNVEVHTAQTQTHREDYGSTLRVVSALPIQHQDWMSGKEFKCKVNNKDLPAPIERTISKPKGSVRAPQVYVLPPPEEEMTKKQVTLTCMVTDFMPEDIYVEWTNNGKTELNYKNTEPVLDSDGSYFMYSKLRVEKKNWVERNSYSCSVVHEGLHNHHTTKSFSRTPGGGGGSGGGGSHPTLKTPESVTGTWKGDVKIQCIYDPLRGYRQVLVKWLVRHGSDSVTIFLRDSTGDHIQQAKYRGRLKVSHKVPGDVSLQINTLQMDDRNHYTCEVTWQTPDGNQVIRDKIIELRVRKYNPPRINTEAPTTLHSSLEATTIMSSTSDLTTNGTGKLEETIAGSGRNLPG
7.97	1.85		binds	C1.02m (mu CRIg-mu IgG2a Fc DANG-VEGF binder) (Fc fusion) HPTLKTPESVTGTWKGDVKIQCIYDPLRGYRQVLVKWLVRHGSDSVTIFLRDSTGDHIQQAKYRGRLKVSHKVPGDVSLQINTLQMDDRNHYTCEVTWQTPDGNQVIRDKIIELRVRKYNPPRINTEAPTTLHSSLEATTIMSSTSDLTTNGTGKLEETIAGSGRNLPGGGGSEPRGPTIKPCPPCKCPAPNLLGGPSVFIFPPKIKDVLMISLSPIVTCVVVAVSEDDPDVQISWFVNNVEVHTAQTQTHREDYGSTLRVVSALPIQHQDWMSGKEFKCKVNNKDLPAPIERTISKPKGSVRAPQVYVLPPPEEEMTKKQVTLTCMVTDFMPEDIYVEWTNNGKTELNYKNTEPVLDSDGSYFMYSKLRVEKKNWVERNSYSCSVVHEGLHNHHTTKSFSRTPGGGGGSGGGGSSDTGRPFVEMYSEIPEIIHMTEGRELVIPCRVTSPNITVTLKKFPLDTLIPDGKRIIWDSRKGFIISNATYKEIGLLTCEATVNGHLYKTNYLTHRQTNTIIDVVLSPSHGIELSVGEKLVLNCTARTELNVGIDFNWEYPSSKHQHKKLVNRDLKTQSGSEMKKFLSTLTIDGVTRSDQGLYTCAASSGLMTKKNSTFVRVHEK
